# Test system: human monocytes
# Assay type: cell-based
molecule,measurement,value
"Rv0577: ~32 kDa IL-10 producing protein encoded by Rv0577 (cfp32), SEQ ID NO: 2 (protein, listed as Mycobacterium tuberculosis) MPKRSEYRQGTPNWVDLQTTDQSAAKKFYTSLFGWGYDDNPVPGGGGVYSMATLNGEAVAAIAPMPPGAPEGMPPIWNTYIAVDDVDAVVDKVVPGGGQVMMPAFDIGDAGRMSFITDPTGAAVGLWQANRHIGATLVNETGTLIWNELLTDKPDLALAFYEAVVGLTHSSMEIAAGQNYRVLKAGDAEVGGCMEPPMPGVPNHWHVYFAVDDADATAAKAAAAGGQVIAEPADIPSVGRFAVLSDPQGAIFSVLKPAPQQ",IL-10 inducing activity of Mtb attributed to Rv0577,~60%
